Assay results published in patent US20230416383A1.
pKd: −log10 of the molar value.

Experiments:
Experiment in all cases: SPR, mean +/- SD (n = 3)
[1] = target: human FcγRI (hCD64) (human) (UniProt P12314)
[2] = target: Cynomolgus FcγRIIb (cynomolgus monkey)
[3] = target: Cynomolgus FcγRIII (cynomolgus monkey) (UniProt Q8SPW2)
Human FcγRIIIb (human) = Human FcγRIIIb (human) (UniProt O75015)
[4] = target: recombinant Human Fc gamma RIIIA/CD16a (V176F) (human) (UniProt P08637)
Human FcγRIIb (human) = Human FcγRIIb (human) (UniProt P31994)
[5] = target: Cynomolgus FcγRIIa (cynomolgus monkey)
[6] = target: recombinant Human Fc gamma RIIIA/CD16a (V176) (human) (UniProt P08637)
[7] = target: Cynomolgus FcγRI (cynomolgus monkey)
[8] = target: Cynomolgus FcRn (cynomolgus monkey) (UniProt Q8SPV9)
Human FcγRIIa (human) = Human FcγRIIa (human) (UniProt P12318)
Chain of UniProt P12318 (P12318 36-218 limits assumed): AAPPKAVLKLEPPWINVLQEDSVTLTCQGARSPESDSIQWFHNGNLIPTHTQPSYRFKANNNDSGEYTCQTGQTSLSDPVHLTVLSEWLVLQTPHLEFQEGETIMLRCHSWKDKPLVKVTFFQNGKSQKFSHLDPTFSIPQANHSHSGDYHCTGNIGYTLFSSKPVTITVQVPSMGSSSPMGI

Chain of UniProt P31994 (P31994 46-217 limits assumed): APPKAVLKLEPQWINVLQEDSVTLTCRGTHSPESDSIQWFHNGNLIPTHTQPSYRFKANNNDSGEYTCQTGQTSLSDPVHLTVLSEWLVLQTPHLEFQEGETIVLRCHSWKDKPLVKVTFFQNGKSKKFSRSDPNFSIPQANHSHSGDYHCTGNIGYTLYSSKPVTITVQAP
Chain of UniProt P12314 (P12314 16-288 limits assumed): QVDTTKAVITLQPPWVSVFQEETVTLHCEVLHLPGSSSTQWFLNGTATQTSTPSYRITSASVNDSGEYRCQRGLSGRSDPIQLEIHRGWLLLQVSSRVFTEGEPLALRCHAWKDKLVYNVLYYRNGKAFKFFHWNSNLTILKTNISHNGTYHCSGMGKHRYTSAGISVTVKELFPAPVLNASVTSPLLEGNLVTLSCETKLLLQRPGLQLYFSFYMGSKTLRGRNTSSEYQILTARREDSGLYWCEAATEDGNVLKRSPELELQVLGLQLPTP
Chain of UniProt O75015 (O75015 17-200 limits assumed): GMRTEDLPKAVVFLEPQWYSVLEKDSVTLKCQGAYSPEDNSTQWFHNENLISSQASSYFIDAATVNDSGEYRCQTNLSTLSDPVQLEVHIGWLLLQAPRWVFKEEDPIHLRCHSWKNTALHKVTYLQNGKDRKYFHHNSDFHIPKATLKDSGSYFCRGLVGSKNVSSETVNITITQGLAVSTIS
Chain of UniProt Q8SPW2 (Q8SPW2 17-208 limits assumed): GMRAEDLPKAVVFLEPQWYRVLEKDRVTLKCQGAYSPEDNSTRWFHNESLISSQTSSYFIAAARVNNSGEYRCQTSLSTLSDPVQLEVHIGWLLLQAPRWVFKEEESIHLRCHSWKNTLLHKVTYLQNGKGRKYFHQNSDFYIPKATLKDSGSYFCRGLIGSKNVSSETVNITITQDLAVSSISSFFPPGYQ

pKd [1]: 9.70
pKd [2]: 5.63
pKd [3]: 6.24
pKd (Human FcγRIIIb (human)): 5.12
pKd [4]: 5.55
pKd (Human FcγRIIb (human)): 5.37
pKd [5]: 5.20
pKd [6]: 6.24
pKd [7]: 7.74
pKd [8]: 6.63
pKd (Human FcγRIIa (human)): 5.80
Substance: Human IgG1 control (antibody)
